Measured values: patent US20200317768A1 (published 2020)
Where a chain is given by its changes, count along the chain named. Names may count otherwise.

T1: human FcγRIIaH extracellular domain, C-terminal His-tag (human, UniProt P12318 34-217)
T1 construct: also called human FcγRIIa (type H); FcgRIIaH; not shown: His-tag added to C-terminus
T1 sequence: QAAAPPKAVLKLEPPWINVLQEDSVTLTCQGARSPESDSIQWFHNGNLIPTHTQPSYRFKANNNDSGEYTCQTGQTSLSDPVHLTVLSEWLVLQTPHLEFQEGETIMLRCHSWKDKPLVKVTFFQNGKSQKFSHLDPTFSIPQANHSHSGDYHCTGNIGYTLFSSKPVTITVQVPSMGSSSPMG

T2: cynomolgus monkey FcγRIIa1 extracellular domain, C-terminal His-tag (cynomolgus monkey)
T2 construct: also called cyno FcγRIIa1; cynoFcgRIIa1; not shown: His-tag added to C-terminus
T2 chain: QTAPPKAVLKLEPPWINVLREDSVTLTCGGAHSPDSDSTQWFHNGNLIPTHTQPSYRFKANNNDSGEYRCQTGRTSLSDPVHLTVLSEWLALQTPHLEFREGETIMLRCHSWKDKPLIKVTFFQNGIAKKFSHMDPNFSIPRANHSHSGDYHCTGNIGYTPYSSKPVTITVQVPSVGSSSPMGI

T3: human FcγRIIaR extracellular domain, C-terminal His-tag (human, UniProt P12318 34-217)
T3 construct: also called human FcγRIIa (type R); FcgRIIaR; not shown: His-tag added to C-terminus
T3 chain: T1 sequence with H134R

T4: cynomolgus monkey FcγRIIa3 extracellular domain, C-terminal His-tag (cynomolgus monkey)
T4 construct: also called cyno FcγRIIa3; cynoFcgRIIa3; not shown: His-tag added to C-terminus
T4 chain: T2 chain with P95T, T121A, A128S, H133P, D135N

T5: human FcγRIIb extracellular domain, C-terminal His-tag (human, UniProt P31994 43-217)
T5 construct: also called humanFcgRIIb; not shown: His-tag added to C-terminus
T5 sequence: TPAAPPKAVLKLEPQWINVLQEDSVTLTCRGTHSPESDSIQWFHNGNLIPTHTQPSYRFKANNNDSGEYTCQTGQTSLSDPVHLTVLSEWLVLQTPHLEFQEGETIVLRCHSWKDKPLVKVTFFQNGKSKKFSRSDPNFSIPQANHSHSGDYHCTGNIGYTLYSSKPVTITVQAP

T6: cynomolgus monkey FcγRIIa2 extracellular domain, C-terminal His-tag (cynomolgus monkey)
T6 construct: also called cyno FcγRIIa2; cynoFcgRIIa2; not shown: His-tag added to C-terminus
T6 chain: T2 chain with P95T, T121A, I127K, A128S, K130N, D135N, R142Q

T7: cynomolgus monkey FcγRIIb extracellular domain, C-terminal His-tag (cynomolgus monkey)
T7 construct: also called cyno FcγRIIb; cynoFcγRIIb; not shown: His-tag added to C-terminus
T7 chain: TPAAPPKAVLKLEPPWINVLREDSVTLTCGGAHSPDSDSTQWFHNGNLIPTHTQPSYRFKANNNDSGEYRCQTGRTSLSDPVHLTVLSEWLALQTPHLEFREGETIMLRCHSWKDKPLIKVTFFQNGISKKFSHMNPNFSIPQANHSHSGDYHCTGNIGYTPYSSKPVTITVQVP

B1: M103240H795-SG1081 / M103202L1045-SK1 (antibody)
heavy: QVQLVESGGGLVQPGGSLRLSCAVSGIDLSHDDISWVRQAPGKGLEWVSIISYAGSTYYASWAKGRLTISKDTSKNQVVLTMTNMDPVDTATYYCARGVPAYSHGGDLWGQGTLVTVSSASTKGPSVFPLAPSSKSTSGGTAALGCLVKDYFPEPVTVSWNSGALTSGVHTFPAVLQSSGLYSLSSVVTVPSSSLGTQTYICNVNHKPSNTKVDKKVEPKSCDKTHTCPPCPAPELWNGPSVFLFPPKPKDTLMISRTPEVTCVVVDVSDEDPEVKFNWYVDGVEVHNAKTKPREELYNSTYRVVSVLTVLHRDWLNGKEYKCKVSNTALPKPIEKTISKAKGQRREPQVYTLPPSREEMTKNQVSLTCLVKGFYPSDIAVEWESNGQPENNYKTTPPVLDSDGSFFLYSKLTVDKSRWQQGNVFSCSVMHEALHAHYTRKELSLSP
light: DIVMTQSPATLSLSPGERATLSCTTSQSVYHENWLSWFQQKPGQPPKLLIYWASTLAYGVPSRFSGSGSGTDFTLTISSLQPEDAATYYCAGGYGGGRYAFGQGTKVEIKRTVAAPSVFIFPPSDEQLKSGTASVVCLLNNFYPREAKVQWKVDNALQSGNSQESVTEQDSKDSTYSLSSTLTLSKADYEKHKVYACEVTHQGLSSPVTKSFNRGEC
notes: CH with L235W/G236N/H268D/Q295L/Q311R/K326T/A330K/P343R/N434A/Q438R/S440E against SG1 (EU numbering); also called MS1032LO19-SG1081
B2: M103240H795-SG1077 / M103202L1045-SK1 (antibody)
heavy: B1 heavy with M430L, Y438T
light: B1 light
notes: CH with L235W/G236N/H268D/Q295L/Q311R/K326T/A330K/P343R/M428L/N434A/Y436T/Q438R/S440E against SG1 (EU numbering); also called MS1032LO19-SG1077

Legend:
[1] = biological target: T8, human FcγRIIIaV extracellular domain, C-terminal His-tag (human, UniProt P08637 17-208); test: SPR (BIACORE); KD of parent SG1 / KD of variant;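 further: relative to parent M103205H795-SG1 carrying the SG1 human heavy chain constant region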
T8 construct: also called FcgRIIIaV; not shown: His-tag added to C-terminus

[2] = biological target: T1, human FcγRIIaH extracellular domain, …; test: SPR (BIACORE); KD of parent SG1 / KD of variant;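 further: relative to parent M103205H795-SG1 carrying the SG1 human heavy chain constant region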
[3] = biological target: T2, cynomolgus monkey FcγRIIa1 …; test: SPR (BIACORE); KD of parent SG1 / KD of variant;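 further: relative to parent M103205H795-SG1 carrying the SG1 human heavy chain constant region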
[4] = biological target: T3, human FcγRIIaR extracellular domain, …; test: SPR (BIACORE); KD of parent SG1 / KD of variant;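 further: relative to parent M103205H795-SG1 carrying the SG1 human heavy chain constant region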
[5] = biological target: T4, cynomolgus monkey FcγRIIa3 …; test: SPR (BIACORE); KD of parent SG1 / KD of variant
[6] = biological target: T9, cynomolgus monkey FcγRIIIaS extracellular domain, C-terminal His-tag (cynomolgus monkey, UniProt A3RFZ7 21-206 (rhesus entry)); test: SPR (BIACORE); KD of parent SG1 / KD of variant
T9 construct: also called cyno FcγRIIIaS; cynoFcγRIIIaS; not shown: His-tag added to C-terminus

[7] = biological target: T5, human FcγRIIb extracellular domain, …; test: SPR (BIACORE); KD of parent SG1 / KD of variant
[8] = biological target: T6, cynomolgus monkey FcγRIIa2 …; test: SPR (BIACORE); KD of parent SG1 / KD of variant
[9] = biological target: T7, cynomolgus monkey FcγRIIb extracellular …; test: SPR (BIACORE); KD of parent SG1 / KD of variant
[10] = biological target: T8, human FcγRIIIaV extracellular domain, …; test: SPR (BIACORE), antibody captured, FcγR analyte
[11] = biological target: T1, human FcγRIIaH extracellular domain, …; test: SPR (BIACORE), antibody captured, FcγR analyte
[12] = biological target: T2, cynomolgus monkey FcγRIIa1 …; test: SPR (BIACORE), antibody captured, FcγR analyte
[13] = biological target: T3, human FcγRIIaR extracellular domain, …; test: SPR (BIACORE), antibody captured, FcγR analyte
[14] = biological target: T4, cynomolgus monkey FcγRIIa3 …; test: SPR (BIACORE), antibody captured, FcγR analyte
[15] = biological target: T9, cynomolgus monkey FcγRIIIaS …; test: SPR (BIACORE), antibody captured, FcγR analyte
[16] = biological target: T5, human FcγRIIb extracellular domain, …; test: SPR (BIACORE), antibody captured, FcγR analyte
[17] = biological target: T6, cynomolgus monkey FcγRIIa2 …; test: SPR (BIACORE), antibody captured, FcγR analyte
[18] = biological target: T7, cynomolgus monkey FcγRIIb extracellular …; test: SPR (BIACORE), antibody captured, FcγR analyte

T8 sequence (P08637 17-208 F176V): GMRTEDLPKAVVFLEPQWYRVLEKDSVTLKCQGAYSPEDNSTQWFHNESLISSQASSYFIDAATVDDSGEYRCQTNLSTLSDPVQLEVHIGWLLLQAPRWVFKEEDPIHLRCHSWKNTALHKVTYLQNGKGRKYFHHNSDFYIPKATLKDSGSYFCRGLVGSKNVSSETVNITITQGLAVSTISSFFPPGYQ
T9 sequence (A3RFZ7 21-206): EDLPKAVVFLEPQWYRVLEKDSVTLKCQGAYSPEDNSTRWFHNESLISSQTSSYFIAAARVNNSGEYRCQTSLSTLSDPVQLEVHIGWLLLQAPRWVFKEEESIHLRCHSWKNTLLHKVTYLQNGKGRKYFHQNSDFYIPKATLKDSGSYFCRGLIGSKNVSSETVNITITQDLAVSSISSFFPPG

Row | Binder | KD fold (SG1 = 1) [1] | KD fold (SG1 = 1) [2] | KD fold (SG1 = 1) [3] | KD fold (SG1 = 1) [4] | KD fold (SG1 = 1) [5] | KD fold (SG1 = 1) [6] | KD fold (SG1 = 1) [7] | KD fold (SG1 = 1) [8] | KD fold (SG1 = 1) [9] | Kd [10] | Kd [11] | Kd [12] | Kd [13] | Kd [14] | Kd [15] | Kd [16] | Kd [17] | Kd [18]
1 | B1 | 0.17 fold | 1 fold | 2.7 fold | 1.4 fold | 3.1 fold | 0.09 fold | 7.7 fold | 3.2 fold | 5.9 fold | 3.4 µM | 0.99 µM | 1.4 µM | 0.68 µM | 2.1 µM | 2.9 µM | 0.5 µM | 1.8 µM | 0.29 µM
2 | B2 | 0.17 fold | 1 fold | 2.7 fold | 1.4 fold | 3.3 fold | 0.09 fold | 7.5 fold | 3.1 fold | 5.4 fold | 3.4 µM | 0.93 µM | 1.4 µM | 0.69 µM | 2 µM | 2.9 µM | 0.51 µM | 1.3 µM | 0.32 µM
